The values that follow come from US20110287023A1 (AstraZeneca / MedImmune, published 2011).

One experiment deals with T1, HMGB1 peptide 106-123 (also: biotinylated, site and spacer not given here).
T1 peptide: CSEYRPKIKGEHPGLSIG
The experiment in a line: ELISA, biotinylated peptide on NeutrAvidin plate, antibody serially diluted from 10 ug/ml, anti-human IgG-HRP, OD 450. As to the method:
(§1) The plate was then blocked with 4% milk powder dissolved in PBS at 37° C. for 1 hour. The blocking solution was removed and replaced with human anti-HMG1 antibodies at various concentrations (see FIGS. 5A-B). […] HRP activity was detected with Sureblue HRP substrate (KPL). Plates were read at 450 nm using a Kinetic Microplate Reader (Molecular Devices). […] After washing and blocking with 1% BSA in PBS, the biotinylated peptides were individually added into the avidin coated wells and incubated for 30 min at room temperature. The serial diluted antibody G4, S16 and S6 at the initial concentration at 10 μg/ml were then transferred into the wells followed by adding mouse anti human IgG-HRP conjugate (Pierce). Detection was accomplished by adding 50 μl of tetramethylbenzidine (TMB) substrate (KPL) and the absorbance was read at 450 nm.

In a further experiment the target is T2, HMGB1 peptide 179-186 (UniProt P09429 179-186, also: biotinylated, site not given here).
T2 peptide (looked up): EKSKKKKE
The experiment is described as above. Here is the method: as §1

The target of the next experiment is T3, HMGB1 peptide 166-183 (UniProt P09429 166-183, also: biotinylated, site not given here).
T3 peptide (looked up): GKPDAAKKGVVKAEKSKK
The experiment is described as above. Here is the method: as §1

The target in experiment [1] is T4, HMG1 purified from calf (bovine) thymus (bovine, UniProt P10103 2-215).
T4 construct: also called Calf thymus HMGB1; thymus HMG1
T4 sequence (looked up): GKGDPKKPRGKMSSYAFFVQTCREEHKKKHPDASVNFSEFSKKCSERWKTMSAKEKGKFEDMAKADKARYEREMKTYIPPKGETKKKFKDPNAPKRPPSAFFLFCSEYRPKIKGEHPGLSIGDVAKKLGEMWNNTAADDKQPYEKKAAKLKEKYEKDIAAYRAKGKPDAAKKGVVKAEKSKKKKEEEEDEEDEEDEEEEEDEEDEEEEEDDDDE
Put plainly: blocking ELISA: thymus HMGB1 pre-incubated with the antibody, then added to coated RAGE/Fc (blocked partner: RAGE/Fc); one bar per antibody, the antibody's concentration is not given. Here is the method:
HMG1 binding to RAGE-Ig by ELISA: 50 μl/well of RAGE-Fc fusion protein at 5 μg/ml in PBS was added to each well of an ELISA plate and incubated overnight at 4° C. The plate was then blocked with 200 μl of 5% milk at 37° C. for 1 hr and washed 3× with PBS/Tween. 50 μl/well of diluted HMGB1 solution. For dose curves, HMGB1 concentrations started at 4 ug/ml in PBS. For antibody blocking the HMGB1 was preincubated in another plate with human anti-HMG1 antibodies or buffer, then transferred to the RAGE-coated plate. The plates were then incubated at room temperature for 2 hours and washed 3×. To detect any HMG1 bound to the immobilized RAGE-Fc a mixture of biotinylated mouse anti-HMG1 mAbs (10D4, 4H11, 3E10 and 5C12) each at 1 ug/ml, total Ab: 4 ug/ml, were added to each well and the plate was incubated for 1 hour at room temperature. The plate was then washed and Strepavidin-HPR was added to each well and incubated 15 min. The plate was then washed 3× and blotted dry. 100 μl of TMB developing agent was added and the plate read at 650 nm. Values were calculated as percent of inhibition with HMG1 alone equal to 0% inhibition. The data in FIG. 9 and summarized in Table 1 represent the average of two separate experiments.

Where no end group is shown, it is not given here.

B1: human anti-HMG1 antibody G4 (antibody, IgG1, V domains shown)
VH: EVQLLESGGGLVQPGGSLRLSCAASGFTFSWYDMTWVRQAPGKGLEWVSSISPSGGYTKYADSVKGRFTISRDNSKNTLYLQMNSLRAEDTAVYYCTTEFYDYLDVWGKGTTVTVSS
VL: DIQMTQSPGTLSLSPGEGATLSCRASQSVSSTYLAWYQQKPGQAPRLLIYEASKRATGTPARFSGSGSGTDFTLSISSLEPEDFAVYYCQHRHNWPPQWTFGQGTKVEVK
notes: full length IgG1 made from a human Fab phage clone; also called ATCC PTA-6258
As to B1, the binding result in the experiment with HMGB1 peptide 106-123 is given as “binds”.

B2: human anti-HMG1 antibody S16 (antibody, IgG1, V domains shown)
VH: EVQLLESGGGLVQPGGSLRLSCAASGFTFSWYSMLWVRQAPGKGLEWVSYISPSGGFTNYADSVKGRFTISRDNSKNTLYLQMNSLRAEDTAVYYCARWDYNSGWYYDHWGQGTLVTVSS
VL: DIQMTQSPDTLSLSPGERATLSCRASQSVNSRNLAWYQQKPGQAPRLLIYGASTRATGIPDRFSGSVSGTEFTLTISSLQPDDFATYYCQQYNSYFTFGQGTKLEIK
notes: full length IgG1 made from a human Fab phage clone; also called ATCC PTA-6259
As to B2, the binding result with HMGB1 peptide 179-186 and with HMGB1 peptide 166-183 was “binds” each time.

B3: human anti-HMG1 antibody E11 (antibody, IgG1, V domains shown)
VH: EVQLLESGGGLVQPGGSLRLSCAASGFTFSRYQMNWVRQAPGKGLEWVSSISPSGGHTHYADSVKGRFTISRDNSKNTLYLQMNSLRAEDTAVYYCAKDGRQGKISTVDHWGQGTLVTVSS
VL: DIQMTQSPGTLSLSPGERATLSCRASQSVRSNFLAWYQQKPGQAPRLLIYGASRRASGIPDRFSGSGFGADFTLSISRLEPEDFAVYYCQQYGSSPNTFGQGSRVEIK
notes: full length IgG1 made from a human Fab phage clone
For the molecule B3, the binding result in experiment [1] is given as “binds”.
